From patent publication US20040234982A1 (published 2004)

Tests used:
T/EBP/NKX2.1 (TTF1) = molecular target: T1, T/EBP/NKX2.1 (TTF1) (UniProt P23441); test: cell_activity; details: luciferase
T1 sequence: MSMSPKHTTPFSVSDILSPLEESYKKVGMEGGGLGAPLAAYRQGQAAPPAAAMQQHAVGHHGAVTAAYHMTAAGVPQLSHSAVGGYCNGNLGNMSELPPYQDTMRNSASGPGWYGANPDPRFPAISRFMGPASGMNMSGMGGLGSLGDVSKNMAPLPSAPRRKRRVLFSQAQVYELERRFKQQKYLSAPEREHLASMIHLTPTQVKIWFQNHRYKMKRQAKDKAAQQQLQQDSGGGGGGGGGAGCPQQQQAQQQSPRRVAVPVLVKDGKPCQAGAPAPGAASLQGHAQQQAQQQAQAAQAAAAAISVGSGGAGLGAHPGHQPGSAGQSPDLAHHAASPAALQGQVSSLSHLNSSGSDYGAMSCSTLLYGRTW

[1] = system: unknown -112 site binding nuclear protein; test: EMSA
[2] = molecular target: the molecule itself; test: anti-c-myc immunoblot of COS-1 cell lysate and conditioned medium, non-reducing vs reducing SDS-PAGE; homodimer
Experimental: Three forms of cDNAs encoding type A, B and C proteins were amplified by PCR and inserted into EcoRI and XhoI site of pcDNA3.1/Myc-His(+) A vector (Invitrogen). Transient transfection into COS-1 cells was performed using Effectene transfection reagent (Qiagen). After 2 days, cells and conditioned media were collected, separated on 13% SDS-polyacrylamide gels under reducing and non-reducing conditions, and electrophoretically transferred to nitrocellulose membrane (Schleicher & Schuell). The filter was incubated in PBS containing 5% skim milk, and then for 1 h with 250-fold diluted c-myc 9E10 […] antibody (Santa Cruz Biotechnology, Santa Cruz, Calif.). The filter was washed in PBS containing 0.1% Tween 20, incubated with horseradish peroxidase (HRP)-conjugated anti-rabbit IgG (Amersham Pharmacia Biotech), and then washed with the same buffer. Protein bands were detected using ECL Western blotting detection reagent (Amersham Pharmacia Biotech).
The polypeptides of uteroglobin/CCSP family members form a homodimer or heterodimer (Mukherjee et al., Cell Mol Life Sci 55:771-787, 1999). […] In contrast, no band corresponding to polypeptide C was ever detected in either the cell lysate or the medium under any conditions examined, despite the effort to keep the procedures of transient expression and immunoblot analyses consistent for all three polypeptides. […]

pGL3-190 mouse UGRP1 promoter reporter
activity (fold activation) (T/EBP/NKX2.1 (TTF1); NCI-H441 cells): 4

-112G oligonucleotide
binding signal (fold affinity vs -112A) ([1]; competition with unlabeled oligonucleotides): 2

-112A oligonucleotide
binding signal (fold affinity vs -112G) ([1]; binds at same mobility, about 2-fold lower affinity): 0.5

pGL3-147 mouse UGRP1 promoter reporter
activity (fold activation) (T/EBP/NKX2.1 (TTF1); HeLa cells): 5

B1: Mouse UGRP1 type A polypeptide tagged with a c-myc epitope at the carboxyl-terminus, expressed in COS-1 cells (other, not shown: small tags and cut ends)
chain: LLINRLPVVDKLPVPLDDIIPSFDPLKMLLKTLGISVEHLVTGLKKCVDELGPEASEAVKKLLEALSHLV
notes: Type A is 91 amino acids; The protein was found as a homodimer under non-reducing conditions; also called polypeptide A
binding result [2]: binds
